Key:
[1] = molecular target: human HER3 expressed on cells (HEK293 HER3 O/E cells) (human) (UniProt P21860); test: flow cytometry, HEK293 cells overexpressing human HER3, 20 ug/ml antibody, FITC anti-Fc secondary; same antibody on WT HEK293: 0.07
[2] = molecular target: human HER3 expressed on cells (HEK293 HER3 O/E cells) (human) (UniProt P21860); test: flow cytometry, HEK293 cells overexpressing human HER3, 20 ug/ml antibody, FITC anti-Fc secondary; same antibody on WT HEK293: 1.68
FcRn (human) = FcRn (human) (UniProt P55899); test: Bio-Layer Interferometry (determined as described in Example 7)
[3] = molecular target: His-tagged FcγRIIIa (V158) (human) (UniProt P08637); test: as above
moFcRn (mouse) = moFcRn (mouse) (UniProt Q61559); test: as above
FcgRIIIA (F158) (human) = FcgRIIIA (F158) (human) (UniProt P08637); test: as above
moFcgRIV = test: as above
[4] = molecular target: human HER3 expressed on cells (HEK293 HER3 O/E cells) (human) (UniProt P21860); test: flow cytometry on HEK293T HER3 O/E cells, 10 ug antibody as printed, FITC-conjugated anti-Fc secondary

Isotype (antibody) showed a % Parent (HER3 positive) [1] of 0.12% and a % Parent (HE3 positive) [2] of 13.9%.

For LJM716 (antibody), the Kd (FcRn (human)) was 16.5 nM, the Kd [3] was 705 nM and the Kd (moFcRn (mouse)) was 12.8 nM. For the same substance, the Kd (FcgRIIIA (F158) (human)) was 5380 nM and the Kd (moFcgRIV) was 701 nM.

hIgG1 Isotype (antibody) was tested, and the % Parent (HER3 positive) [4] was 0.18%.

Source: US20250122303A1, “TREATMENT AND PREVENTION OF CANCER USING HER3 ANTIGEN-BINDING MOLECULES” (Hummingbird Bioscience Pte. Ltd., priority 2021, published 2025)
